Test results taken from PMC10397247.

How the values were obtained:
Assay in all cases: two-hybrid library CCmax;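 note: natural log of median RNA to DNA barcode read ratio; higher means stronger binding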
O11-AA = biological target: T1, O11-AA
T1 chain: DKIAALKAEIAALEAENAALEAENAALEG

O6-AA = biological target: T2, O6-AA; conditions: mean of both orientations
T2 chain: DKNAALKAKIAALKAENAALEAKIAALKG

O14-AA = biological target: T3, O14-AA; conditions: mean of both orientations
T3 chain: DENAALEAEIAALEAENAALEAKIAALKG

P9-AA = biological target: T4, P9-AA; conditions: mean of both orientations
T4 chain: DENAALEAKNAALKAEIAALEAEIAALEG

O8-AA = biological target: T5, O8-AA; conditions: mean of both orientations
T5 chain: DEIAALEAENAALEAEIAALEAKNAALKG

O7-AA = biological target: T6, O7-AA; conditions: mean of both orientations
T6 chain: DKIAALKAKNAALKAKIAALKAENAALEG

P10-AA = biological target: T7, P10-AA; conditions: mean of both orientations
T7 chain: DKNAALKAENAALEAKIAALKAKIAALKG

O5-AA = biological target: T8, O5-AA
T8 chain: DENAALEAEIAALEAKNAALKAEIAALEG

O2-AA = biological target: T9, O2-AA; conditions: mean of both orientations
T9 chain: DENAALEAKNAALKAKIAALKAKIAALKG

O3-AA = biological target: T10, O3-AA; conditions: mean of both orientations
T10 chain: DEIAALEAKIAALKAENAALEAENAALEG

O13-AA = biological target: T11, O13-AA; conditions: mean of both orientations
T11 chain: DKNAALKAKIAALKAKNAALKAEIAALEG

O4-AA = biological target: T12, O4-AA; conditions: mean of both orientations
T12 chain: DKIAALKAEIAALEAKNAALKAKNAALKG

O1-AA = biological target: T13, O1-AA
T13 chain: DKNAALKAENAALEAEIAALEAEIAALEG

interaction score (O11-AA): -1.61 | interaction score (O6-AA): -1.79 | interaction score (O14-AA): -1.66 | interaction score (P9-AA): -0.278 | interaction score (O8-AA): -1.41 | interaction score (O7-AA): -0.639 | interaction score (P10-AA): 1.05 | interaction score (O5-AA): -1.72 | interaction score (O2-AA): 2.13 | interaction score (O3-AA): -1.57 | interaction score (O13-AA): 0.0154 | interaction score (O4-AA): -1.07 | interaction score (O1-AA): -2.06
Binder: DKNAALKAENAALEAEIAALEAEIAALEG [O1-AA]
